# Source: publication PMC9714796 (2022)
# T1: TGF-βRII-Fc (muTGFbRII-mFc) (mouse (from the printed name …, UniProt Q62312 24-166))
# T1 chain: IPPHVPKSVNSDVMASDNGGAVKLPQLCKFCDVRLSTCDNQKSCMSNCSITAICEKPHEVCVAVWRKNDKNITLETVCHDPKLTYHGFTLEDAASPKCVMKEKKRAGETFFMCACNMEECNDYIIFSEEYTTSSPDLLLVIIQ
# Target: T1, TGF-βRII-Fc (muTGFbRII-mFc)
# Test: SPR
binder,measurement,value
Transforming growth factor-β3 (TGF-β3) (ligand) ALDTNYCFRNLEENCCVRPLYIDFRQDLGWKWVHEPKGYYANFCSGPCPYLRSADTTHSTVLGLYNTLNPEASASPCCVPQDLEPLTILYYVGRTPKVEQLSNMVVKSCKCS,koff,0.0013 s⁻¹
